# Values of other authors as cited in publication PMC3877032.
# Experiments:
# ERK2 (Homo sapiens) = ERK2 (Homo sapiens) (UniProt P28482)
# PLD1 (Homo sapiens) = PLD1 (Homo sapiens) (UniProt Q13393)
# UniProt Q13393, sequence (Q13393 whole entry): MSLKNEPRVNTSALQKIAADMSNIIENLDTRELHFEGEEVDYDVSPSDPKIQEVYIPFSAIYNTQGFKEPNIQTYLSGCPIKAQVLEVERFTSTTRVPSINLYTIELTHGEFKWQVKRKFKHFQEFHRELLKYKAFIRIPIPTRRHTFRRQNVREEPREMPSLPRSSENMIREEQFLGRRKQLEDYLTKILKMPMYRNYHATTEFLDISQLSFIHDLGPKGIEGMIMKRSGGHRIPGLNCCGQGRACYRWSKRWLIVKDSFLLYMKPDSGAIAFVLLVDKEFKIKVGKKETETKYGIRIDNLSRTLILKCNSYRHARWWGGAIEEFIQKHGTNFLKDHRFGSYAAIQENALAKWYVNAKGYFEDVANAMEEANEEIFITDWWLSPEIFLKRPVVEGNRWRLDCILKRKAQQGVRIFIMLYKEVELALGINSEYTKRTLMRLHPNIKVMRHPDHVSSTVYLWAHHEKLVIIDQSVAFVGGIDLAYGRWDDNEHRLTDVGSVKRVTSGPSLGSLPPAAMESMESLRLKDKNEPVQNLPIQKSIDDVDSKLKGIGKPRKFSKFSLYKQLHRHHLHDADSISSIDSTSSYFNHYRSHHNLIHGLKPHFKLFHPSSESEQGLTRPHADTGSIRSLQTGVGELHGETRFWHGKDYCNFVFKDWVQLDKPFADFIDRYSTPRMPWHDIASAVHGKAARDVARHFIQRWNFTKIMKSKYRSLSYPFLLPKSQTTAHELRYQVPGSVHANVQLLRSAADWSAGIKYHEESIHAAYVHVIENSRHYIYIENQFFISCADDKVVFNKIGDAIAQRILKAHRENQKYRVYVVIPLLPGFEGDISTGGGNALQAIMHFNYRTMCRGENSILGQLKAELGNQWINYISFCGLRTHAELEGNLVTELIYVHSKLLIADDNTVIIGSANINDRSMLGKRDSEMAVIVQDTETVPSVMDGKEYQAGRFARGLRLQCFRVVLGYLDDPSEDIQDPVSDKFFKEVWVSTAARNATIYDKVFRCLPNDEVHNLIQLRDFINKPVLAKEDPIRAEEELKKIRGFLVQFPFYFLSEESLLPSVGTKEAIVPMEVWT
# UniProt P28482, sequence (P28482 2-360): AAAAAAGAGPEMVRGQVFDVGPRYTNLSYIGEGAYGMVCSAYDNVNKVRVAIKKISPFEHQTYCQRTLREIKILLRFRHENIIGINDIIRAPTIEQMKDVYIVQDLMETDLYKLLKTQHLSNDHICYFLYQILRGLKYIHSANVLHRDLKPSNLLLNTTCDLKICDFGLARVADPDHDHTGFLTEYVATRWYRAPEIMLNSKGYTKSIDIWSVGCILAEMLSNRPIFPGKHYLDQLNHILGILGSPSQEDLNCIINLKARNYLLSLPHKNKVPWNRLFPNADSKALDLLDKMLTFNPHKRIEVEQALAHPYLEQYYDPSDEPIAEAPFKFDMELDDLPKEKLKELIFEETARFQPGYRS
substance,measurement,setting,value
PEA-15 (from UniProt Q15121),Kd,ERK2 (Homo sapiens),133 nM
same,Kd,PLD1 (Homo sapiens),370 nM
